In patent US10654918B2, “Inflammatory disease diagnosis and methods of treatment using down-regulators of lipopolysaccharide-responsive beige-like anchor” (University of South Florida, priority 2013, dated 2020):

Legend:
Format in all cases: cell-based, human
Raji B cells = assay: Viable cell count of Raji B cells and Rajisi9 B cells; settings: 10 cells per well, 11 days
Description: FIG. 20 is a graph showing knockdown of LRBA promotes B cell proliferations. Raji B cells and Rajisi9 B cells (Raji B cells stably transfected with shRNA plasmid against LRBA) were culture on a 96 well plate with 10 cells per well for 11 days. Viable cells were counted by the Trypan blue live/dead discrimination method with a Hemocytometer.
Raji B cells and Rajisi9 B cells (Raji B cells stably transfected with shRNA plasmid against LRBA) were cultured in a 96 well plate with 10 cells per well for 9 days. Blockage of LRBA promotes THP1 cell proliferation. THP1 cells (human acute monocytic leukemia cell line) were cultured in 100 μl of RPMI1640 media with or without human LRBA polyclonal IgG antibody at 0.67 μg/ml or the same amount of human actin polyclonal IgG antibody on a 96 well plate with 10 cells per well for 9 days. Viable cells were counted by the trypan blue live/dead discrimination method with a hemocytometer.

[1] = test system: MAPKs [p42/44, p38 and Jun N-terminal kinase (JNK)]; assay: MAPK Western blot in Raji and Raji9 cells; settings: LRBA KD Raji cells, LPS
Description: FIGS. 47(A) and (B). Knockdown of LRBA deregulates MAPKs. Knockdown of LRBA upregulates p38 and JNK but downregulates p42/44. Half million of Raji or Raji9 cells were put in a well in a 6 well plate. After 24 hr, cells were treated with or without LPS for the time as indicated. 200 μl RIPA buffer with protease inhibitors and PMSF. (A) Western blot of cells was performed. 30 μl of cell extracts were loaded to ach well. Phosphorylated protein levels were normalized to β-Actin shown as the numbers between the two blots. (B) curves based on the Western blots. Quantity One software was used to quantify the levels.
Like NF-κB, the mitogen-activated protein kinases (MAPKs) act as funnels to collect many stress-activated signals but function as bottle necks to filter and process these signals, and then have many diverse targets(26). Specifically, MAPKs are critical downstream hubs of the TLR4/LPS signal transduction(27) and may be affected by LRBA deficiency. The expression and activation of the three major MAPKs [p42/44, p38 and Jun N-terminal kinase (JNK)] were examined in Raji cells. […] The phospho-p42/44 measured by flow cytometry intracellular staining also is decreased (data not shown). […] The Drosophila MAPK and JNK have 82% and 78% identities with their human orthologues, respectively.

Raji cells = assay: Cell surface CVID and TLR4 receptors on LRBA WT and LRBA KD Raji cells (flow cytometry)
From the text: LRBA is an important vesicle trafficking regulator (Wang, et al., Identification of a novel lipopolysaccharide-inducible gene with key features of both A kinase anchor proteins and chs1/beige proteins. 2001. J Immunol 166: 4586-4595; Cullinane, et al., The BEACH Is Hot: A LYST of Emerging Roles for BEACH-Domain Containing Proteins in Human Disease. 2013. Traffic) and may function as a master regulator of multiple CVID receptors. To test this, LRBA WT and LRBA KD Raji cells were stimulated with LPS, and the cell surface levels of CVID receptors and TLR4 were analyzed by flow cytometry. BD FACSelect Multicolor Panel Designer was used to search antibodies and build up the panel for multiple color cytometry for LSRII FACS machine. Fluorophores directly conjugated antibodies against cell surface CVID proteins were used: CD19-PerCP-Cy5.5, CD2O-PE-Cy7, CD21-V450, BAFFR-PE, TACI-APC, and CD81-APC-H7. Two panels were used when use live/dead discrimination with DAPI […] or 7AAD (overlap with V450). The standard staining procedures were followed and 20,000 to half million cells were acquired. Data acquisition was performed using FACS LSRII flow cytometers and analyzed using FACSDiva version 6.1.2.

[2] = Raji cell surface, LPS stimulated, Knockdown

B1: LRBA shRNA: shRNA plasmid against LRBA; targeted LRBA sequence SEQ ID No. 15 GGGATATTGTAGAAACTGTCTTT (nucleic acid)
sense: GGGATATTGTAGAAACTGTCTTTTTCAAGAGAAAAGACAGTTTCTACAATATCCCTTTTTT
antisense: CCCTATAACATCTTTGACAGAAAAAGTTCTCTTTTCTGTCAAAGATGTTATAGGGAAAAAA
B cell proliferations (viable cells, Trypan blue) (Raji B cells): promotes
JNK kinase activity [1]: increased
p38 kinase activity [1]: increased
p42/44 kinase activity [1]: reduced
BAFFR Median Intensity (Raji cells; [2]): 4198.00 ± 496.75 arbitrary fluorescence intensity units
BAFFR Percentage (Raji cells; [2]): 90.83 ± 0.93%
CD19 Median Intensity (Raji cells; [2]): 5830.17 ± 159.95 arbitrary fluorescence intensity units
CD19 Percentage (Raji cells; [2]): 98.57 ± 0.28%
CD20 Median Intensity (Raji cells; [2]): 29541.25 ± 332.06 arbitrary fluorescence intensity units
CD20 Percentage (Raji cells; [2]): 99.18 ± 0.04%
CD21 Median Intensity (Raji cells; [2]): 1659.50 ± 72.48 arbitrary fluorescence intensity units
CD21 Percentage (Raji cells; [2]): 55.08 ± 5.00%
TACI Median Intensity (Raji cells; [2]): 1813.50 ± 412.89 arbitrary fluorescence intensity units
TACI Percentage (Raji cells; [2]): 7.38 ± 1.49%
TLR4 Median Intensity (Raji cells; [2]): 11204.60 ± 2171.10 arbitrary fluorescence intensity units
TLR4 Percentage (Raji cells; [2]): 31.27 ± 11.42%
BAFFR Median Intensity fold (Raji cells; Wild type vs Knockdown): 0.81↑
BAFFR Percentage fold (Raji cells; Wild type vs Knockdown): 0.96↑
CD19 Median Intensity fold (Raji cells; Wild type vs Knockdown): 1.23↓
CD19 Percentage fold (Raji cells; Wild type vs Knockdown): 1.00
CD20 Median Intensity fold (Raji cells; Wild type vs Knockdown): 1.21↓
CD20 Percentage fold (Raji cells; Wild type vs Knockdown): 1.00
CD21 Median Intensity fold (Raji cells; Wild type vs Knockdown): 0.96↑
CD21 Percentage fold (Raji cells; Wild type vs Knockdown): 0.49↑
TACI Median Intensity fold (Raji cells; Wild type vs Knockdown): 1.33↓
TACI Percentage fold (Raji cells; Wild type vs Knockdown): 4.07↓
TLR4 Median Intensity fold (Raji cells; Wild type vs Knockdown): 1.04
TLR4 Percentage fold (Raji cells; Wild type vs Knockdown): 1.82↓
